Source: article PMC3265570 (Nature structural & molecular biology, 2011)
No end group written: not given here.

Biological target: full-length Crk-II (SH2-nSH3-cSH3) (UniProt Q64010-1 1-304)
Assay: other fluorescence titration

Sequence of full-length Crk-II (SH2-nSH3-cSH3) (Q64010 whole entry): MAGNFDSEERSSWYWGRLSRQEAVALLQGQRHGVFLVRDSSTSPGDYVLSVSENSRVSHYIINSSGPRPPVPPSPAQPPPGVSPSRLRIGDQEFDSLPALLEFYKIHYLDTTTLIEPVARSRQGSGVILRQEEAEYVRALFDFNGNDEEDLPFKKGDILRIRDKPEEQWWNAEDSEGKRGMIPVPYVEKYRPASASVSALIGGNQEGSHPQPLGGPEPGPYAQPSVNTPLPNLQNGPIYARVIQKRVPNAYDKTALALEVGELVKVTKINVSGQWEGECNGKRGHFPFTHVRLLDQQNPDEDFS

Kd: 286 ± 19 nM
Binder: HPPPPLPPKRRK(fluorescein)G-NH2 [fluorescein-labeled C3G-derived ligand]
